According to patent US20190022245A1:

Biological target: epidermal growth factor receptor (EGFR) on cells (human (on human cell lines)) (UniProt P00533)
Test: cell-based or functional assay

B1: h15-2b Fab × EGFR scFv (monovalent anti-mPEG (h15-2b) anti-EGFR BsAb, example 2.3) (bispecific antibody, part only; not given: nothing essential named, not shown: another chain or arm of the molecule; ; small tags and cut ends)
light: DIQMTQSPSSLSASVGDRVTITCKASQDVNTSVAWYQQKPGKAPKLLIYWASTRHTGVPSRFSGSGSGTDFTFTISSLQPEDIATYYCLQYINYPYTFGQGTKLEIKRTVAAPSVFIFPPSDEQLKSGTASVVCLLNNFYPREAKVQWKVDNALQSGNSQESVTEQDSKDSTYSLSSTLTLSKADYEKHKLYACEVTHQGLSSPVTKSFNRGEC
heavy: EVQLVESGGGLVQPGGSLKLSCAASGFTFSNYWMNWVRQASGKGLEWVGEIRSKSNNYATHYAESVKGRFTISRDDSKNTAYLQMNSLKTEDTAVYYCSNRYYWGQGTLVTVSSASTKGPSVFPLAPCSRSTSESTAALGCLVKDYFPEPVTVSWNSGALTSGVHTFPAVLQSSGLYSLSSVVTVPSSNFGTQTYTCNVDHKPSNTKVDKTVERKGEQKLISEEDLGGGGSGGGGSGGGGSQLDIVMTQSPLSLPVTPGEPASISCRSSQNIVHNNGITYLEWYLQKPGQSPQLLIYKVSDRFSGVPDRFSGSGSGTDFTLKISRVEAEDVGVYYCFQGSHIPPTFGQGTKVEIKRAGGGGSGGGGSGGGGSQVQLVQSGAEVKKPGASVKVSCKASGYTFTSYWMHWVRQAPGQGLEWMGNIYPGSGGTNYAEKFKNRVTMTRDTSISTAYMELSRLRSDDTAVYYCARSGGPYFFDYWGQGTLVTVSS
- region of interest (ROI) ratio of SW480 (EGFR+) to SW620 (EGFR-) tumors, 24 h: 2.04
- region of interest (ROI) ratio of SW480 (EGFR+) to SW620 (EGFR-) tumors, 48 h: 2.32
- region of interest (ROI) ratio of SW480 (EGFR+) to SW620 (EGFR-) tumors, 72 h: 2.33
